From patent US20240148878A1, “THERAPEUTIC POLY-ADP-RIBOSE POLYMER-GCSF CONJUGATES” (UNIVERSITY OF SOUTHERN CALIFORNIA, priority 2022, published 2024)

What was measured:
[1] = target: anti-GCSF monoclonal antibody (clone: BVD13-3A5, BioLegend); experiment: sandwich ELISA, BVD13-3A5 coated, detection anti-GCSF 3D1-HRP; analyte 125 ng/mL, replicate #1
[2] = target: anti-GCSF monoclonal antibody (clone: BVD13-3A5, BioLegend); experiment: sandwich ELISA, BVD13-3A5 coated, detection anti-GCSF 3D1-HRP; analyte 62.5 ng/mL, replicate #1
[3] = target: anti-GCSF monoclonal antibody (clone: BVD13-3A5, BioLegend); experiment: sandwich ELISA, BVD13-3A5 coated, detection anti-GCSF 3D1-HRP; analyte 250 ng/mL, replicate #1
[4] = target: anti-GCSF monoclonal antibody (clone: BVD13-3A5, BioLegend); experiment: sandwich ELISA, BVD13-3A5 coated, detection anti-GCSF 3D1-HRP; analyte 31.25 ng/mL, replicate #2
[5] = target: anti-GCSF monoclonal antibody (clone: BVD13-3A5, BioLegend); experiment: sandwich ELISA, BVD13-3A5 coated, detection anti-GCSF 3D1-HRP; analyte 125 ng/mL, replicate #2
[6] = target: T1, GCSF receptor on mouse NFS-60 cells (mouse (NFS-60 cells)) (UniProt P40223); experiment: cell-based or functional assay
T1 sequence (looked up): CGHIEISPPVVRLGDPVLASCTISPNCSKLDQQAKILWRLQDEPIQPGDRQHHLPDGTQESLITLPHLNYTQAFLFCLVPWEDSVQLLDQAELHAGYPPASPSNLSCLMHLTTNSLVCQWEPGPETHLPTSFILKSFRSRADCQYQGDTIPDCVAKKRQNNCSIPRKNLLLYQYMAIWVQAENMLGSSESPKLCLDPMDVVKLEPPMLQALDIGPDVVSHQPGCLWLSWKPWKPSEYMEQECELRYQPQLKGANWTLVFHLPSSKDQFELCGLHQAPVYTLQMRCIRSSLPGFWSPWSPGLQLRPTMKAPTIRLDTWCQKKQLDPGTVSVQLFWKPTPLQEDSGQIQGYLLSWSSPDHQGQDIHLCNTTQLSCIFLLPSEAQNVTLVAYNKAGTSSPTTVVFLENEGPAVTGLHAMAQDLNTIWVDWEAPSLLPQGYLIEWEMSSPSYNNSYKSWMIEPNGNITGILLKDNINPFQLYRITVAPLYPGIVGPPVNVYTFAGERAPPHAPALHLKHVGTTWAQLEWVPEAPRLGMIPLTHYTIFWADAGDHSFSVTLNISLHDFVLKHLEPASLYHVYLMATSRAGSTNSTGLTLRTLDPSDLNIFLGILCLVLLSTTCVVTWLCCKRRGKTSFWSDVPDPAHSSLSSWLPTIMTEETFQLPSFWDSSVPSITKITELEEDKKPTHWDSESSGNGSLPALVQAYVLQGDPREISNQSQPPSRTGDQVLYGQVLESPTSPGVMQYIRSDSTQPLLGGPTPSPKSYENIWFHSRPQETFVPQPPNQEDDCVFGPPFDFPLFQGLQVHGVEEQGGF

[7] = target: anti-GCSF monoclonal antibody (clone: BVD13-3A5, BioLegend); experiment: sandwich ELISA, BVD13-3A5 coated, detection anti-GCSF 3D1-HRP; analyte 62.5 ng/mL, replicate #2
[8] = target: anti-GCSF monoclonal antibody (clone: BVD13-3A5, BioLegend); experiment: sandwich ELISA, BVD13-3A5 coated, detection anti-GCSF 3D1-HRP; analyte 31.25 ng/mL, replicate #1
[9] = target: anti-GCSF monoclonal antibody (clone: BVD13-3A5, BioLegend); experiment: sandwich ELISA, BVD13-3A5 coated, detection anti-GCSF 3D1-HRP; analyte 500 ng/mL, replicate #1
[10] = target: anti-GCSF monoclonal antibody (clone: BVD13-3A5, BioLegend); experiment: sandwich ELISA, BVD13-3A5 coated, detection anti-GCSF 3D1-HRP; analyte 250 ng/mL, replicate #2
[11] = target: anti-GCSF monoclonal antibody (clone: BVD13-3A5, BioLegend); experiment: sandwich ELISA, BVD13-3A5 coated, detection anti-GCSF 3D1-HRP; analyte 500 ng/mL, replicate #2
[12] = test system: neutrophil populations in blood; experiment: In vivo efficacy: neutrophil populations in blood by flow cytometry after single s.c. dose; set-up: species or system CD1 mice; conditions: for neutrophil percentage reached after sharp increase: within 24 hours, from approximately 10%
Text: FIG. 4A-C illustrates in vivo efficacy of the PARylated PARP1-GCSF conjugate. Single doses of GCSF (1.25 nmol), PARylated PARP1 (2.5 nmol) and PARylated PARP1-GCSF conjugate (0.5 or 2.5 nmol) were administrated by subcutaneous (s.c.) injections into CD1 mice (five per group). Blood was collected and analyzed for neutrophil populations by flow cytometry using fluorophore-labeled anti-mouse CD45, anti-mouse CD11b, and anti-mouse Ly-6G antibodies. (A)-(B) Neutrophil percentages in mouse blood after the single-dose treatments. For (B), 1=PBS; 2=GCSF 1.25 nmol; 3=PARylated PARP1 2.5 nmol; 4=PARylated PARP1-GCSF 0.5 nmol; 5=PARylated PARP1-GCSF 2.5 nmol. (C) Representative flow cytometric analyses of mouse neutrophil populations after treatments with 1) PBS; 2) GCSF 1.25 nmol; 3) PARylated PARP1 2.5 nmol; 4) PARylated PARP1-GCSF 0.5 nmol; and 5) PARylated PARP1-GCSF 2.5 nmol conjugate. ns=not significant, p>0.05; *, p<0.05; **, p<0.01; ***, p<0.001; ****, p<0.0001. Data for the 5 conjugates are listed for days 0, 1, 5, and 11.
Animals. Female CD-1 IGS mice (22-24 g) were purchased from Charles River Laboratories (Wilmington, MA). All animal studies were performed under a protocol approved by the Institutional Animal Care and Use Committee of the University of Southern California.
In vivo efficacy of the PARylated PARP1-GCSF conjugate. Single doses of GCSF (1.25 nmol), PARylated PARP1 (2.5 nmol), or PARylated PARP1-GCSF conjugate (0.5 or 2.5 nmol) were administrated by subcutaneous (s.c.) injections into CD1 mice (5 per group). Blood was collected at day 0 through day 13 and analyzed by flow cytometry to measure percentages of neutrophil populations in white blood cells using pacific blue anti-mouse CD45 (clone: 30-F11, BioLegend), APC anti-mouse CD11b (clone: M1/70, eBioscence, Carlsbad, CA), and FITC anti-mouse Ly-6G antibodies (clone: 1A8, BioLegend).

mouse NFS-60 cells = experiment: In vitro proliferation assay (MTT); assay type: cell-based; conditions: for EC50: NFS-60 cells, 72 hours, MTT, read-out: EC50 of stimulatory (proliferative) activity
Procedure: FIG. 3 illustrates the PARylated PARP1-GCSF conjugate stimulates proliferation of mouse NFS-60 cells in a dose-dependent manner. Cells were treated with various concentrations of PARylated PARP1, PARylated PARP1-GCSF conjugate, and human GCSF for 72 hours. Cell viabilities were quantified using MTT assays.
Cell lines. Mouse NFS-60 cells were grown in RPMI 1640 medium containing 10% FBS, 0.05 mM 2-mercaptoethanol and 62 ng/mL human recombinant macrophage colony stimulating factor (M-CSF). Expi293F cells were purchased from Thermo Fisher Scientific and cultured in Expi293F expression medium with shaking at a speed of 125 rpm at 37° C. and 8% CO2.
In vitro proliferation assays. Mouse NFS-60 cells were cultured in RPMI 1640 medium containing 10% FBS, 0.05 mM 2-mercapoethanol and 62 ng/ml human recombinant M-CSF. To examine the proliferative activity of PARylated PARP1-GCSF conjugate, cells were washed three times with DPBS buffer, resuspended in RPMI-1640 medium with 10% FBS and 0.05 mM 2-mercapoethanol, plated in 96-well plates (1.5×10^4 cells per well) with various concentrations of GCSF, PARylated PARP1, or PARylated PARP1-hG-CSF conjugate, and incubated for 72 hours at 37° C. with 5% CO2. Cells were then treated with 0.5 mg mL^−1 3-(4,5-dimethylthiazol-2-yl)-2,5-diphenyltetrazolium bromide (MTT) solution for 3 hours at 37° C., followed by additions of 100 μL of lysis buffer (20% SDS in 50% dimethylformamide, 0.5% (v:v) 80% acetic acid, 0.4% (v:v) 1 N HCl, pH 4.7) and incubated for 4 hours at 37° C. Fluorescence intensity measured at 595 nm is proportional to cell viability.

Question: Which Fluorescence Intensity [1] does the source give for “PARylated PARP1-GCSF conjugate (from UniProt P09874 1-1014)” here?
Answer: 32100

Question: And the Fluorescence Intensity [2]?
Answer: 22800

Question: What about the Fluorescence Intensity [3] of the same molecule?
Answer: 49400

Question: And the Fluorescence Intensity [4]?
Answer: 15900

Question: What about the Fluorescence Intensity [5] of the same molecule?
Answer: 44700

Question: And the EC50, proliferation of mouse NFS-60 cells (MTT, 72 hours) [6]?
Answer: 6.02 pM

Question: What about the fold potency against free GCSF, proliferation of mouse NFS-60 cells [6] of the same molecule?
Answer: 4 fold

Question: And the Fluorescence Intensity [7]?
Answer: 20700

Question: And the Fluorescence Intensity [8]?
Answer: 15900

Question: What about the Fluorescence Intensity [9] of the same molecule?
Answer: 64500

Question: What about the Fluorescence Intensity [10] of the same molecule?
Answer: 49200

Question: What about the Fluorescence Intensity [11] of the same molecule?
Answer: 64900

Question: “PARylated PARP1-GCSF conjugate: Auto-PARylated human PARP1 (3′-azido NAD+-derived PAR polymers) click-conjugated with alkyne-functionalized human GCSF, 14.0±0.5 GCSF molecules on average” was tested. Which “duration of sustained elevated levels of neutrophil” value ([12]; conjugate 2.5 nmol) did it give?
Answer: 11 days

Question: What about the “neutrophil-stimulating activity compared with 1.25 nmol GCSF” value ([12]; conjugate at a dose of 0.5 nmol) of the same molecule?
Answer: comparable

Question: And the “neutrophil percentage reached after sharp increase” value [12]?
Answer: ~50%

Question: What about the EC50 (mouse NFS-60 cells) of the same molecule?
Answer: 6.02 ± 0.93 pM

Question: And the “fold increased potency versus recombinant human GCSF” value (mouse NFS-60 cells; ratio of EC50, NFS-60 cells)?
Answer: approximately 4 fold

Question: What does the source list for “Recombinant human granulocyte colony-stimulating factor (GCSF) with His6 tag, expressed in Expi293F cells (from UniProt P09919 31-207) (ligand)”?
Answer: Fluorescence Intensity [1]: 42300; Fluorescence Intensity [2]: 29400; Fluorescence Intensity [3]: 62200; Fluorescence Intensity [4]: 20700; Fluorescence Intensity [5]: 42700; EC50, proliferation of mouse NFS-60 cells (MTT, 72 hours) [6]: 24.8 pM; Fluorescence Intensity [7]: 29800; Fluorescence Intensity [8]: 19900; Fluorescence Intensity [9]: 75700; Fluorescence Intensity [10]: 60700; Fluorescence Intensity [11]: 76500

B1: GCSF: Recombinant human granulocyte colony-stimulating factor (His6) expressed in Expi293F cells (protein)
chain: TPLGPASSLPQSFLLKCLEQVRKIQGDGAALQEKLVSECATYKLCHPEELVLLGHSLGIPWAPLSSCPSQALQLAGCLSQLHSGLFLYQGLLQALEGISPELGPTLDTLQLDVADFATTIWQQMEELGMAPALQPTQGAMPAFASAFQRRAGGVLVASHLQSFLEVSYRVLRHLAQPHHHHHH
Question: B1 was tested. Which “neutrophil percentage reached after sharp increase” value [12] did it give?
Answer: ~50%

Question: What about the EC50 (mouse NFS-60 cells) of the same molecule?
Answer: 24.8 ± 3.21 pM
